Tests used:
[1] = molecular target: sgt1b_arath SGT1B (UniProt Q9SUT5)
[2] = molecular target: rar1_arath RAR1 (UniProt Q9SE33)
Chain of rar1_arath RAR1 (Q9SE33 whole entry): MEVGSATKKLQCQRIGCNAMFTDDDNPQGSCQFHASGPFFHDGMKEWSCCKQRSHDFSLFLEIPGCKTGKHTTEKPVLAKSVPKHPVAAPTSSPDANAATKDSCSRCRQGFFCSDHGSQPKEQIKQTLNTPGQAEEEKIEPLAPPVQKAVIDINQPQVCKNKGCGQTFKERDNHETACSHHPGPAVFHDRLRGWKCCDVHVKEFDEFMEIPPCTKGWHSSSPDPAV

Chain of sgt1b_arath SGT1B (Q9SUT5 whole entry): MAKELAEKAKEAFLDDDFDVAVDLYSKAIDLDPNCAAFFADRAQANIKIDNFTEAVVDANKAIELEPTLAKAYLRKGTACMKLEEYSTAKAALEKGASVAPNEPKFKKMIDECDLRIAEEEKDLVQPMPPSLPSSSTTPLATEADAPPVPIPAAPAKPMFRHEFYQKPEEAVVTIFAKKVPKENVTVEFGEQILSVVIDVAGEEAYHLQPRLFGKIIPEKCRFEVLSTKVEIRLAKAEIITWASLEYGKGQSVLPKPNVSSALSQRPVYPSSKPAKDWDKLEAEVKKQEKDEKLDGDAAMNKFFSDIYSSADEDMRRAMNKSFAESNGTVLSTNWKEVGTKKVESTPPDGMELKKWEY
Chain of Heat shock protein 90-2 (Arabidopsis thaliana (Mouse-ear cress)), P55737 D80N (P55737 whole entry D80N): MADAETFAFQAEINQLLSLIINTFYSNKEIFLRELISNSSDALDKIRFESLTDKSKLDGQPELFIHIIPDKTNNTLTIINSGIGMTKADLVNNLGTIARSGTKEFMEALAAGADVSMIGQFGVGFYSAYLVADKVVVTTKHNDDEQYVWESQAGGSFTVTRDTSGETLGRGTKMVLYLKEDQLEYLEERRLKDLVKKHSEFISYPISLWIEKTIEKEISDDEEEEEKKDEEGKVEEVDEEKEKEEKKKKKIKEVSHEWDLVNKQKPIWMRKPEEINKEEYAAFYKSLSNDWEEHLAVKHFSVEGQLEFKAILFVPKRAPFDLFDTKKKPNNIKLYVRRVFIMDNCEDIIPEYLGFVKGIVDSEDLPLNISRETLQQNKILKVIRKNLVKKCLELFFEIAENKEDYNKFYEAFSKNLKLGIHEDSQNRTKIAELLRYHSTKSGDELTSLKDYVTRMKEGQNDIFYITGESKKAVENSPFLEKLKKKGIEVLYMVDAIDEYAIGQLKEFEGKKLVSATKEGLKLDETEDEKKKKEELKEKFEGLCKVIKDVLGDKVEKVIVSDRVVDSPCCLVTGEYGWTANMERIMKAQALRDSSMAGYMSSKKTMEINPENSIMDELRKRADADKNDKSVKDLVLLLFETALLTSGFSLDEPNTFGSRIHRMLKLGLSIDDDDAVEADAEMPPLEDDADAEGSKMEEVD
Chain of Heat shock protein 90-2 (Arabidopsis thaliana (Mouse-ear cress)), P55737 G95E (P55737 whole entry G95E): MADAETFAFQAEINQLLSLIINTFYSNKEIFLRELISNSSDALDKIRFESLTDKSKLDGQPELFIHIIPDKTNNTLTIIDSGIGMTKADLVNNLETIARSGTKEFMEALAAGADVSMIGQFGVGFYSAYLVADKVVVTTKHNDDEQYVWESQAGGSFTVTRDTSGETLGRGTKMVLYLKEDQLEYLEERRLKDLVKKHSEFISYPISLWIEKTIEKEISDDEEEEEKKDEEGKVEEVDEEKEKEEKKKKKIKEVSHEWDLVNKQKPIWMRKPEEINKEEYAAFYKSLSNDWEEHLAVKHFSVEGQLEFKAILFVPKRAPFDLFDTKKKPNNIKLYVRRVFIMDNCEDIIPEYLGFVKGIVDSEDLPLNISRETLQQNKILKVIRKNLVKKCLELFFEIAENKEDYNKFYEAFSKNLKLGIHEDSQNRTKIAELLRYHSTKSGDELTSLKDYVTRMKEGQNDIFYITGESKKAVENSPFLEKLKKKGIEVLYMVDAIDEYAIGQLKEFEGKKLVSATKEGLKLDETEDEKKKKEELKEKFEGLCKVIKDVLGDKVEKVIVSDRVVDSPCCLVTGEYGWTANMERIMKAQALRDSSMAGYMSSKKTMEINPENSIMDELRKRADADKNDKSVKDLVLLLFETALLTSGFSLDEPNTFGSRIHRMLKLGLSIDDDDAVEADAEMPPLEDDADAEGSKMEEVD
Chain of Heat shock protein 90-2 (Arabidopsis thaliana (Mouse-ear cress)), P55737 A42T (P55737 whole entry A42T): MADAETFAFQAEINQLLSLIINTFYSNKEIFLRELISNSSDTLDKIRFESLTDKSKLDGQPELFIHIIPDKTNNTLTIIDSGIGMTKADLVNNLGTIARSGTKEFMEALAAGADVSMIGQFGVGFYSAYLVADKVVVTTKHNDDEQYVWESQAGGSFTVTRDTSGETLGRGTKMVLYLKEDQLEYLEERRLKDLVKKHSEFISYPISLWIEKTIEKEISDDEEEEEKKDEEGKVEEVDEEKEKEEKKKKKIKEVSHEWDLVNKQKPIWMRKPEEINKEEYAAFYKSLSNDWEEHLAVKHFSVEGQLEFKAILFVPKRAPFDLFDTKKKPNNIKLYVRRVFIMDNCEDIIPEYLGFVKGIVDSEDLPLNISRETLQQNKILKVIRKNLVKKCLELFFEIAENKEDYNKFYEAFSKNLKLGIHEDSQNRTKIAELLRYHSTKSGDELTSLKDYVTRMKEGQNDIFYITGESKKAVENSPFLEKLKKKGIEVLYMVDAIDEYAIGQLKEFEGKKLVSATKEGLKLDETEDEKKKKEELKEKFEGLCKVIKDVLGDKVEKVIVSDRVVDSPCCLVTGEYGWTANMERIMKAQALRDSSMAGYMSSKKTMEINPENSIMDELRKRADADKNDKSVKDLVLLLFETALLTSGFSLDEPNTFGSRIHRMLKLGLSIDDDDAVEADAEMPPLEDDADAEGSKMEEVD
Chain of Heat shock protein 90-2 (Arabidopsis thaliana (Mouse-ear cress)), P55737 R337C (P55737 whole entry R337C): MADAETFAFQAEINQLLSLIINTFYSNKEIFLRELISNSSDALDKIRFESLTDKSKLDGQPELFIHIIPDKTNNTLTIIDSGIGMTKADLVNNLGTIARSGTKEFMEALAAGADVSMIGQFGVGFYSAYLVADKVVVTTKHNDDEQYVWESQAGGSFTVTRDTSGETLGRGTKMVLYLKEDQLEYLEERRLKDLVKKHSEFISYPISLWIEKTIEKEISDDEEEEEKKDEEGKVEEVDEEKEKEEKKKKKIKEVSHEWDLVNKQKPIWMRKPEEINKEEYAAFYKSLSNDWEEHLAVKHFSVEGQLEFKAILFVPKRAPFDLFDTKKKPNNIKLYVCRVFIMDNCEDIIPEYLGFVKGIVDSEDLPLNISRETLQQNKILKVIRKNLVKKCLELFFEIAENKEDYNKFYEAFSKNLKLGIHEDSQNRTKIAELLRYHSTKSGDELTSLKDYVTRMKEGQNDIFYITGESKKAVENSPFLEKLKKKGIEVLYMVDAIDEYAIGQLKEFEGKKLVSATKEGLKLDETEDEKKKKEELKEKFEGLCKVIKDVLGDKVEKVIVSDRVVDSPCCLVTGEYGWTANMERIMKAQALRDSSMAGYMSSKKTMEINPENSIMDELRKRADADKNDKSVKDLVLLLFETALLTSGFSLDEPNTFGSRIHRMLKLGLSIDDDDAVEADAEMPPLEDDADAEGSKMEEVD
Chain of Heat shock protein 90-2 (Arabidopsis thaliana (Mouse-ear cress)), P55737 S100F (P55737 whole entry S100F): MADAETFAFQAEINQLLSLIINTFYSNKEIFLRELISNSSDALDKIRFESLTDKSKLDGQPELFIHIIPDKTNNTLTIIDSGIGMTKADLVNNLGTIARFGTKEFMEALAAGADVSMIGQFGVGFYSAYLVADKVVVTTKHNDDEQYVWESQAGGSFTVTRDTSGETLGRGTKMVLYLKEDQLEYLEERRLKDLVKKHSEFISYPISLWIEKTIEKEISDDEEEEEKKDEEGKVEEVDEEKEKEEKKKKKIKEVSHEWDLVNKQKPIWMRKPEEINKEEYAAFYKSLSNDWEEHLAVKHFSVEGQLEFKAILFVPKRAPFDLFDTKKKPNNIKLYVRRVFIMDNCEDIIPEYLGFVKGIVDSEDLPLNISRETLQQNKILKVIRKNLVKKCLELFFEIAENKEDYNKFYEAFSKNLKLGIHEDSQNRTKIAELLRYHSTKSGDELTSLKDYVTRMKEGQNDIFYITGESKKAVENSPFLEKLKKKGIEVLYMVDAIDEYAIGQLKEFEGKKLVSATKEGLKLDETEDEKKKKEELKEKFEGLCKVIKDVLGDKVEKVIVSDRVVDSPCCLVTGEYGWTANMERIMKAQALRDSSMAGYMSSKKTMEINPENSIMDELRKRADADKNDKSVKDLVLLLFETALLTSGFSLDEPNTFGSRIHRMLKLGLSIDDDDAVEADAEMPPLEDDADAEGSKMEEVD

Row | Substance | effect of a mutation on the interaction [1] | effect of a mutation on the interaction [2]
1 | Heat shock protein 90-2 (Arabidopsis thaliana (Mouse-ear cress)), P55737 A42T | disrupting interaction strength | disrupting interaction strength
2 | Heat shock protein 90-2 (Arabidopsis thaliana (Mouse-ear cress)), P55737 D80N | disrupting interaction strength | disrupting interaction strength
3 | Heat shock protein 90-2 (Arabidopsis thaliana (Mouse-ear cress)), P55737 G95E | disrupting interaction strength | decreasing interaction strength
4 | Heat shock protein 90-2 (Arabidopsis thaliana (Mouse-ear cress)), P55737 R337C | decreasing interaction strength | disrupting interaction strength
5 | Heat shock protein 90-2 (Arabidopsis thaliana (Mouse-ear cress)), P55737 S100F | disrupting interaction strength | –
